Data taken from article PMC548347.

Target: T1, SSB (single-strand binding protein) (Sulfolobus solfataricus, UniProt Q97W73 1-148)
T1 sequence: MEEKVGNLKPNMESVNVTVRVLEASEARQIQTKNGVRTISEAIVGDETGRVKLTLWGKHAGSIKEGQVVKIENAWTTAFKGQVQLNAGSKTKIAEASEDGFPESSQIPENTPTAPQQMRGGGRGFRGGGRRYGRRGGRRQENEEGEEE
Assay: EMSA

B1: RGA oligonucleotide (dsDNA)
DNA 1: GGCTGTCGACGAAGATAGAGGACTTAATCGATATC
DNA 2: GGGATATCGATTAAGTCCTCTATCTTCGTCGACAG
- binding result: binds
